Assays:
Type in all cases: cell-based, human
paraxial mesoderm = assay: Paraxial mesoderm induction, marker expression; settings: during induction of paraxial mesoderm
Procedure: All differentiation was conducted in serum-free CDM2 basal medium in monolayer feeder-free conditions. hPSCs were sparsely passaged ˜1:15-1:20 as fine clumps (using Accutase) onto Geltrex (Gibco)-coated cell culture wells and cultured overnight in mTeSR1+1 μM thiazovivin. The following morning, hPSCs were differentiated towards anterior PS (30 ng/mL Activin+4 μM CHIR+20 ng/mL FGF2+100 nM PIK90; for subsequent paraxial differentiation) or mid PS (30 ng/mL Activin+40 ng/mL BMP4+6 μM CHIR+20 ng/mL FGF2+[…] differentiation) for 24 hrs. D1 anterior PS→D2 paraxial mesoderm (1 μM A8301+3 μM CHIR+250 nM LDN193189+20 ng/mL FGF2) for 24 hrs. D1 mid PS→D2 lateral mesoderm (1 μM A8301+30 ng/mL BMP4+1 μM C59) for 24 hrs.
Subsequently, day 1 anterior primitive streak was briefly washed (DMEM/F12) and differentiated towards day 2 paraxial mesoderm for 24 hours (1 μM A-83-01+3 μM CHIR99021+250 nM LDN-193189+20 ng/mL FGF2). Separately, day 1 mid primitive streak was differentiated towards day 2 lateral mesoderm for 24 hours (1 μM A-83-01+30 ng/mL BMP4+1 μM C59; with 2 μM SB-505124 sometimes used instead of A-83-01).

day 6 sclerotome = assay: Sclerotome differentiation towards cartilage
Procedure: Day 6 sclerotome was briefly washed (DMEM/F12) and treated with BMP4 (20 ng/mL) for 72-144 hours, leading to day 9 or day 12 cartilage-like progeny. Media was changed every 24 hours.
hPSC-derived cartilage progeny were stained with safranin-O to assess their production of acidic proteoglycans, which is a key trademark of cartilage phenotypic function. Safranin-O staining was conducted in accord with standard procedures. Namely, hPSC-derived cartilage progeny at day 12 of differentiation (day 6 sclerotome treated with chondrogenic BMP4 for 6 further days) were fixed (with 4% formaldehyde, for 10 minutes at room temperature), washed twice in PBS, briefly treated with 1M acetic acid for 15 seconds, stained with 1% safranin-O solution for 10 minutes, washed with PBS, and wide-field visualization was performed with a dissecting microscope (Leica M205 FA).
FIG. 11: A) To determine the length of time required for sclerotome differentiation, a qPCR timecourse was performed, encompassing undifferentiated hESCs (D0), day 2 hESC-derived paraxial mesoderm (D2 PXM), day 3 hESC-derived early somite progenitors, and hESC-derived day 3 early somite progenitors that were exposed to sclerotome inductive conditions (5 nM 21K+1 μM C59) for 24 or 48 hours. B) Description of EF1α-BCL2-T2A-GFP lentiviral construct (otherwise known as “C306”; top) and FACS plot of a stably-transduced polyclonal H9 hESC line with near-uniform expression of the BCL2-T2A-GFP transgene (green contour) by comparison to uncolored wild-type hESCs (bottom) (see above methods for details of derivation of the H9 BCL2-T2A-GFP hESC line). C) Higher-magnification picture of BCL2-T2A-GFP hESC-derived sclerotome ectopic bone grafts (originally described above in FIG. 4, panel E), showing that despite the near-ubiquitous expression of GFP throughout the ectopic bone graft (indicating its human provenance), the blood vessels are clearly GFP-negative and therefore presumably derived from the mouse host; scale bar=1 mm. […]

[1] = test system: day 3 hemogenic precursors; assay: Hemogenic precursors into day 5 hematopoietic intermediates; settings: withdrawal of the factor from BMP, VEGF, XAV939, TTNPB
Procedure: SOX17^mCherry/+ H9 hESCs (referred to as SOX17-mCherry hESCs throughout this study) were routinely propagated in mTeSR1 (StemCell Technologies)+1% penicillin/streptomycin. They were passaged ˜1:12-1:25 as fine clumps using Accutase (Gibco) onto plates precoated with a Geltrex substratum (Gibco) in mTeSR1 medium supplemented with thiazovivin ([…]; a ROCK inhibitor). After overnight plating, hESCs were washed (DMEM/F12) and differentiated towards posterior PS using BMP4 (15-40 ng/mL, R&D Systems), CHIR99021 ([…]), FGF2 (20 ng/mL, Invitrogen) and PIK90 (100 nM, Calbiochem) for 24 hours, with the optional inclusion of Activin (30 ng/mL, R&D Systems) to induce mid PS. Day 1 mid or posterior PS was subsequently washed (DMEM/F12) and further differentiated using BMP4 (40 ng/mL), GDC-0941 (0.25-2.5 μM, Cellagen Technology), Forskolin (10 μM, Tocris), SB-505124 ([…]), VEGF (100 ng/mL, R&D Systems), XAV939 (1 μM, Tocris) and ascorbic acid-2-phosphate (200 μg/mL, Sigma) for 24 hours. Day 2 cultures were further directed into the definitive hematopoietic lineage/hemogenic precursors by Activin A (15 ng/mL), GDC-0941 (0.25-2.5 μM), VEGF (100 ng/mL), XAV939 (1 μM) and ascorbic acid-2-phosphate (200 μg/mL) for 24 hours. Day 3 definitive hematopoietic progenitors were subsequently differentiated into early Runx1^lowGfi1^low hemogenic intermediates through day 4-5 treatment with BMP4 (50 ng/mL), TTNPB (500 nM), VEGF (100 ng/mL) and XAV939 (1 μM) for 48 hours, supplemented with SB-505124 (2 μM) on day 5. Day 5 populations were then dissociated into single cells, counted and reaggregated in individual wells of a low-adhesion V-bottom or U-bottom 96-well plate (e.g., Thermo Fisher, catalog no. 249952) with ˜15,000-20,000 cells seeded per well. Aggregates were cultured for 48 additional hours until day 7 in BMP4 (50 ng/mL), TTNPB (500 nM), VEGF (100 ng/mL), XAV939 (1 μM), SB-505124 (2 μM), SCF (25-50 ng/mL, R&D Systems), IL6 (10 ng/mL, R&D Systems) and IL6RA (250-1000 ng/mL, R&D Systems). All differentiation was conducted in serum-free CDM2 fully-defined basal media.

With `Cc1cnc(-c2cnc(NCCNc3ccc(C#N)cn3)nc2-c2ccc(Cl)cc2Cl)[nH]1` [CHIR99021, 6-[[2-[[4-(2,4-Dichlorophenyl)-5-(5-methyl-1H-imidazol-2-yl)-2-pyrimidinyl]amino]ethyl]amino]-3-pyridinecarbonitrile] the marker expression (paraxial mesoderm; at 4 μM) was “undesired decrease in marker expression” and the critical concentration (paraxial mesoderm) was “less than 4 μM”.

B1: BMP4: BMP family ligand, BMP agonist (protein, UniProt P12644 293-408, looked up)
Bone morphogenetic protein 4: SPKHHSQRARKKNKNCRRHSLYVDFSDVGWNDWIVAPPGYQAFYCHGDCPFPLADHLNSTNHAIVQTLVNSVNSSIPKACCVPTELSAISMLYLDEYDKVVLKNYQEMVVEGCGCR
B1 was tested, and the “EPIPHYCAN and AGGRECAN expression (timecourse qPCR)” value (day 6 sclerotome; BMP4 20 ng/mL) was “only upregulated after prolonged BMP treatment”, the “SOX9 expression (timecourse qPCR)” value (day 6 sclerotome; BMP4 20 ng/mL) was “rapidly downregulated” and the “cartilage fate (COL2A1, AGGRECAN, EPIPHYCAN, COMP)” value (day 6 sclerotome; BMP4 for 3 further days, day 9) was “differentiated towards a cartilage fate”. The “RUNX1 expression by day 5” value [1] was “crippled RUNX1 expression”.

— patent US10787640B2, “Producing mesodermal cell types and methods of using the same” (The Board of Trustees of the Leland Stanford Junior …, priority 2015, dated 2020)
